Experimental data: the supplement of paper PMC9170038

System: MS2 coat protein
Test: apparent KD of MS2 coat protein; higher = weaker reporter binding
Conditions: Eterna round: R107
Procedure, shortened: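 Designed RNA switches were transcribed on-chip from Illumina sequencing clusters. They were then titrated with SNAP-549-labelled MS2 coat protein (twofold steps, 0.7 or 1.5 nM to 3 µM; 0.8–1.5 h to 10–20 min per step) in 100 mM Tris-HCl pH 7.5, 80 mM KCl, 4 mM MgCl2, without or with constant ligand. Apparent KD is the per-design median of normalised cluster binding-curve fits.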

[1] = input ligand: theophylline 20 uM
[2] = input ligand: theophylline 2 mM
[3] = input ligand: tryptophan 2.4 mM

Sequence: CUGGACAUGAGGAUCACCCAUGUAAAUCCUCGAGGACCGGUACGGCCGCCACUCGAACGAGUGGCGCGCGAGCGCGCGCUCGCGC [aJa]
- apparent KD of MS2 coat protein (input ligand: arginine 13.2 mM): 41.4 nM
- apparent KD of MS2 coat protein (input ligand: none): 43.3 nM
- apparent KD of MS2 coat protein [1]: 80.3 nM
- apparent KD of MS2 coat protein [2]: 62.5 nM
- apparent KD of MS2 coat protein [3]: 45.5 nM

Sequence: CUGUGUCCUUCGGCCGCCACUACAUGAGGAUCACCCAUGUCGUUACGGCUCCCAAUGACGCUUUGUAGGACCGGGAAGGAGUAUG [Tienancebe]
- apparent KD of MS2 coat protein (input ligand: arginine 13.2 mM): 9.27 nM
- apparent KD of MS2 coat protein [1]: 15.9 nM
- apparent KD of MS2 coat protein [2]: 10.9 nM

Sequence: CUUCAACAUGAGGAUCACCCAUGUAGUGAUACCAGUCACUCAUACGACCCUUGGCAGCACAUUUUCUGUCGGCAUGUAGACGAUC [theeternabot_sameState_MS2_Theo_A_33]
- apparent KD of MS2 coat protein (input ligand: arginine 13.2 mM): 73.6 nM
- apparent KD of MS2 coat protein [1]: 172 nM
- apparent KD of MS2 coat protein [3]: 173 nM

Sequence: CUUGGUAGAUCCUAGCUGCCAAGAGGUGAUACCAGCAUCGAAAGAUGCCCUUGGCAGCACCAACAUGAGGAUCACCCAUGUAAUA [(MT)''-(M)'-(T')-(Theo)-(Ms2)_Design1/22_4]
- apparent KD of MS2 coat protein (input ligand: arginine 13.2 mM): 24.3 nM
- apparent KD of MS2 coat protein [1]: 178 nM
- apparent KD of MS2 coat protein [3]: 77.4 nM

Sequence: CUUGUCGUAACUGAUACCAGUGUACUGACAUGAGGAUCACCCAUGUUGGGUUUUGUUGUACACCCUUGGCAGCAGAAUCGAUAAG [AstrosExyTheB#9]
- apparent KD of MS2 coat protein (input ligand: arginine 13.2 mM): 68.8 nM
- apparent KD of MS2 coat protein [1]: 95.3 nM
- apparent KD of MS2 coat protein [3]: 71.3 nM

Sequence: CUUGUGGUCGGAAGGAGCGCGAUUACAUAACAUGAGGAUCACCCAUGUAAGAAAUUAUUCAUGCAGGUAGGUCGCCGGUCGUGGG [Same State Arginine B GF10]
- apparent KD of MS2 coat protein (input ligand: arginine 13.2 mM): 22 nM
- apparent KD of MS2 coat protein (input ligand: none): 21.4 nM
- apparent KD of MS2 coat protein [1]: 29.6 nM
- apparent KD of MS2 coat protein [2]: 22.6 nM
- apparent KD of MS2 coat protein [3]: 21.8 nM

Sequence: CUUGUUUGUGGAAGGAGCGCGAUUACAUAACAUGAGGAUCACCCAUGUAAGAAAUUAUUCAUGCAGGUAGGUCGCCAUUGGUGGG [Same State Arginine B GF8]
- apparent KD of MS2 coat protein (input ligand: arginine 13.2 mM): 64.1 nM
- apparent KD of MS2 coat protein (input ligand: none): 62.2 nM
- apparent KD of MS2 coat protein [1]: 53.1 nM
- apparent KD of MS2 coat protein [2]: 23.7 nM
- apparent KD of MS2 coat protein [3]: 30.6 nM

Sequence: GAACAUAAGGAUAGUAUAAUAACUACAGAAGGAGCGUCAGGAAGGACAGGUAGGUCGCUGGAAGACAUGAGGAUCACCCAUGUUU [#03 Same State - Arginine A]
- apparent KD of MS2 coat protein (input ligand: arginine 13.2 mM): 20.6 nM
- apparent KD of MS2 coat protein (input ligand: none): 21.4 nM
- apparent KD of MS2 coat protein [1]: 28.8 nM
- apparent KD of MS2 coat protein [2]: 21.1 nM
- apparent KD of MS2 coat protein [3]: 17.1 nM

Sequence: GAACAUAAGGAUAGUAUAAUGACUACAGAAGGAGCGUCAGGAAGGACAGGUAGGUCGCUGGAAGACAUGAGGAUCACCCAUGUUU [Arg A SS t2]
- apparent KD of MS2 coat protein (input ligand: arginine 13.2 mM): 25.6 nM
- apparent KD of MS2 coat protein (input ligand: none): 22.8 nM
- apparent KD of MS2 coat protein [1]: 35.3 nM
- apparent KD of MS2 coat protein [2]: 24.5 nM
- apparent KD of MS2 coat protein [3]: 19.4 nM

Sequence: GAAGAGACCUCGGCCGCCACUCGCCAUGAGGAUCUCCCAUGUAACAUGAGGAUCACCCAUGUACAGAGGACCGGGAGGUCCUAGU [Same State Tryptophan B GF 14]
- apparent KD of MS2 coat protein (input ligand: arginine 13.2 mM): 12.8 nM
- apparent KD of MS2 coat protein (input ligand: none): 21.2 nM
- apparent KD of MS2 coat protein [1]: 39.1 nM
- apparent KD of MS2 coat protein [2]: 24.8 nM
- apparent KD of MS2 coat protein [3]: 50.1 nM

Sequence: GAAUAUUACAUGAGGAUCACCCAUGUAGAUACCAGCCUUGAUUGUGGCCCUUGGCAGCUACGCCGUGAAUGCCUCAGUUGCUUAC [Atidi]
- apparent KD of MS2 coat protein (input ligand: arginine 13.2 mM): 36.8 nM
- apparent KD of MS2 coat protein [1]: 121 nM
- apparent KD of MS2 coat protein [3]: 72 nM

Sequence: GAAUUUUAUUGAAGGAGCGUCGAAAAUGGGUAAACAUGAGGAUCACCCAUGUAAAGGGAACGACAGGUAGGUCGCAAUAGGAUUC [AstromonsSSArgB#28]
- apparent KD of MS2 coat protein (input ligand: arginine 13.2 mM): 140 nM
- apparent KD of MS2 coat protein (input ligand: none): 177 nM
- apparent KD of MS2 coat protein [1]: 188 nM
- apparent KD of MS2 coat protein [2]: 247 nM
- apparent KD of MS2 coat protein [3]: 151 nM

Sequence: GACAUGAGGAUCACCCAUGUACCGCGAGAAGGAGCGCGGAUAAACGCAGGUAGGUCGCUCGUGGGCUCACAUUCAAUCGUAAGCU [Azaesisma]
- apparent KD of MS2 coat protein (input ligand: arginine 13.2 mM): 50.9 nM
- apparent KD of MS2 coat protein (input ligand: none): 98.6 nM
- apparent KD of MS2 coat protein [1]: 116 nM
- apparent KD of MS2 coat protein [2]: 165 nM
- apparent KD of MS2 coat protein [3]: 77.7 nM

Sequence: GACAUGAGGAUCACCCAUGUGUAACCAGAAGGAGCGUGCGAAAGCACAGGUAGGUCGCUGGUGGGUUUAGGUUUAGUAGGUGUUC [SSAA NP+V+V2 #3]
- apparent KD of MS2 coat protein (input ligand: arginine 13.2 mM): 87.6 nM
- apparent KD of MS2 coat protein (input ligand: none): 69.2 nM
- apparent KD of MS2 coat protein [1]: 100 nM
- apparent KD of MS2 coat protein [2]: 139 nM
- apparent KD of MS2 coat protein [3]: 56.4 nM

Sequence: GACAUGAGGAUCACCCAUGUUUGCUAUGAAGGAGCGUCGGAAAUGACAGGUAGGUCGCAUAGUAGGCCUUGUAUUUUGUGUGUUU [EAA #8]
- apparent KD of MS2 coat protein (input ligand: arginine 13.2 mM): 11.4 nM
- apparent KD of MS2 coat protein (input ligand: none): 10.1 nM
- apparent KD of MS2 coat protein [1]: 14.4 nM
- apparent KD of MS2 coat protein [2]: 10.8 nM
- apparent KD of MS2 coat protein [3]: 10.5 nM

Sequence: GACGCAUGAGUUGGAACAGCUCAUGGGUCGCGAGGACCGGUACGGCCGCCACUCGGCUGUACAUGAGGAUCACCCAUGUCAGGGU [#1 Same State - Tryptophan A Attempt #30 (HarryS)]
- apparent KD of MS2 coat protein (input ligand: arginine 13.2 mM): 72.7 nM
- apparent KD of MS2 coat protein [1]: 329 nM
- apparent KD of MS2 coat protein [2]: 942 nM

Sequence: GAGACGUCGGGAAGGAGCGCAUCAAAACCACACAUGAGGAUCACCCAUGUAUAAAUAUGCAUGCAGGUAGGUCGCCCGGUGUCCA [SS-ArgB16]
- apparent KD of MS2 coat protein (input ligand: arginine 13.2 mM): 24.2 nM
- apparent KD of MS2 coat protein (input ligand: none): 27.1 nM
- apparent KD of MS2 coat protein [1]: 33.6 nM
- apparent KD of MS2 coat protein [2]: 33.1 nM
- apparent KD of MS2 coat protein [3]: 29.1 nM
